According to publication PMC5902328:

Substrate: N
Assay: purified protein
Settings: aminating direction, co-substrate Fru6P, saturating, no GlcNAc6P activator, 37 °C

B1: Amuc-NagB (Akkermansia muciniphila ATCC BAA-835) (protein)
chain: MIGVESSRVMRAAPRKAVGRVEASVPWDFSRKYAAVHHSGTISVENARKRSKIGRVMKVETFETPQDAAKALAGEVAELIRTRAAEGKNVVLGLATGATPLPFYAELVRMHKEEGLSFANVISFNLDEYSGLDRDHPESYWYFMHTNLFNHIDIKPENINLPSGTVKDDEIAAHCAAYEQKIKDCGGIDLQILGIGRTGHIGFNEPGSDDTTVTRQVHLDELTRSDAAPAFGGIENVPTTAITMGVATIMGAREVALMAWGEKKASIVKKAVQGPVTVDVAASYLQKHPNAKFLLDKGAASLL
For B1, the Km was 41.3 ± 12.8 mM.
